Results on one molecule are retold here after paper PMC5651008, “The Copper Homeostasis Transcription Factor CopR Is Involved in H2O2 Stress in Lactobacillus plantarum CAUH2”.

This series addresses T1, CopR (CopRHis6) (Lactobacillus plantarum CAUH2, UniProt F9UU50 1-142).
T1 sequence: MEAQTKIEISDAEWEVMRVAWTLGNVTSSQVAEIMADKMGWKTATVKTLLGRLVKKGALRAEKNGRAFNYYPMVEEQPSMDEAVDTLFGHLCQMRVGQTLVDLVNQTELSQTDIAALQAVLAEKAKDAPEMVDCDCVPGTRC
Nature of the series: EMSA; no Cu2+ added; 2.5 ug CopRHis6, 20 fmol probe; 20 uL: 1x LightShift binding buffer, 50 ng/uL poly(dI-dC), 2.5% glycerol, 0.05% NP-40, 5 mM MgCl2, 20 fmol probe, 2.5 ug CopRHis6; pH, salt and temperature not. The settings on record: protein: recombinant; tags: C-terminal His6; chain copies: 2; label: 3' biotin; blunt. (In general: Mobility shift assays separate free from complexed probe on a gel.)

B1: copB promoter probe (EMSA copB-F/-R) (dsDNA)
DNA 1: GTGTTTTTCTTGACTTTTATCGTCTACAATTGTAAACTTTAGCCATAAATTACAGATGTAGACAAT
DNA 2: ATTGTCTACATCTGTAATTTATGGCTAAAGTTTACAATTGTAGACGATAAAAGTCAAGAAAAACAC
On to B1, for which the binding result is “binds”.
